# Numbered stars: 1 amine (or outer) side, 2 acyl side, 3 side chain; on linkers, the order of the positions; unused ones are H or OH. Bridge positions count the residues as written; N and C are the ends. Side chains are listed from the residue outwards. Ends that are not written are not given here. * marks the point of attachment. C20 diacid = O=C(O)CCCCCCCCCCCCCCCCCCC(=O)*; γGlu = O=C(O)[C@H](CCC(=O)[*:2])N[*:1]; AEEA = NCCOCCOCC(=O)O
# T1: rat calcitonin receptor (rat, UniProt P32214 25-516)
# T1 construct: whole, on cells; Used as membranes prepared from the transfected cells; also called rCTR; rat calcitonin (a) receptor
# T1 sequence (looked up): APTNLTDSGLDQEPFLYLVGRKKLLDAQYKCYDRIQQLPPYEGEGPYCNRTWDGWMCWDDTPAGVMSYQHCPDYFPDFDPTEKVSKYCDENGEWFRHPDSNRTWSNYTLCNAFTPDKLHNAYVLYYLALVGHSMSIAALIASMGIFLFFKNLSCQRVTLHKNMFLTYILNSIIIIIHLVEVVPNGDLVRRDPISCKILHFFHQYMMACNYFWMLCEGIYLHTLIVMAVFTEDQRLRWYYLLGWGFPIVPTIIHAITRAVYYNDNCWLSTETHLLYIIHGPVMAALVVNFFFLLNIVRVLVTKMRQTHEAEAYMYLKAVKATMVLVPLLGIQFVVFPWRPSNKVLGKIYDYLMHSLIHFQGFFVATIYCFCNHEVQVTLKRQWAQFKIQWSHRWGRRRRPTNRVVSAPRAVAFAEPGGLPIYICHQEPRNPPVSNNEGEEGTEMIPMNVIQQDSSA
# T2: human calcitonin receptor (human, UniProt P30988 25-474)
# T2 construct: whole, on cells; Used as membranes prepared from the transfected cells (Assay VII); also called hCTR; hCT
# T2 sequence (looked up): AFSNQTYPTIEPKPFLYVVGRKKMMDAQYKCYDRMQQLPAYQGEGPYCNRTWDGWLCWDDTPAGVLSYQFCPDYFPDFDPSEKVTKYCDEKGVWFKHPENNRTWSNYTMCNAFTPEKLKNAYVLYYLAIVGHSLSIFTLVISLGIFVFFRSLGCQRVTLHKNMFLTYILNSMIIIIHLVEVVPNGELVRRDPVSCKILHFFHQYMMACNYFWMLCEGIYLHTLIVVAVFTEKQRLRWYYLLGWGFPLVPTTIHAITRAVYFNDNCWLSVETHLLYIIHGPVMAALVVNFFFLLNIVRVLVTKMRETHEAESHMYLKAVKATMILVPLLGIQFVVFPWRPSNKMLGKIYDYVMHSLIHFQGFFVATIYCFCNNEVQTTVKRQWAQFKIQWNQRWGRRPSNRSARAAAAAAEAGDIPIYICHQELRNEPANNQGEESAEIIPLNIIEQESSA
# T3: rat amylin receptor (rat calcitonin receptor + rat RAMP 3) (rat, UniProt P32214 25-516; Q9JJ73 23-147)
# T3 construct: whole, on cells; Used as membranes prepared from the transfected cells; also called rAmylin-R; rat amylin 3(a) receptor
# T3 sequence (looked up) 1: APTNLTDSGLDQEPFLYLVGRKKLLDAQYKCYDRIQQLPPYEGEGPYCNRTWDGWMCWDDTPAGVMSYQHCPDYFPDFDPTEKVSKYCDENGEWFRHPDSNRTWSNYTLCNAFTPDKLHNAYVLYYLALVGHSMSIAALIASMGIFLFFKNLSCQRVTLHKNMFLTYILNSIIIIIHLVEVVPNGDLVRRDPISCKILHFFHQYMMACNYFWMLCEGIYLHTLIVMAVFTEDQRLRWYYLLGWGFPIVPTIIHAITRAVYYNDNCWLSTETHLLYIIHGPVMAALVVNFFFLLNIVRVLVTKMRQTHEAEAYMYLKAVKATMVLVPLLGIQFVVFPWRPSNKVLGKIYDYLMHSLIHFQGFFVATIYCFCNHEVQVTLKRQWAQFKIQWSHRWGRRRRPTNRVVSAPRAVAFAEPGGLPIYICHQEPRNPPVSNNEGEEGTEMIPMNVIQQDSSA
# T3 sequence (looked up) 2: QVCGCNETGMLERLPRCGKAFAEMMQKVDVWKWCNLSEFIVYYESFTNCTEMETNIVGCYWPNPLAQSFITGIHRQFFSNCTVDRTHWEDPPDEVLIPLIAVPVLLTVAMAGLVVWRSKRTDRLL
# What was measured:
# rat calcitonin receptor [1] = target: T1, rat calcitonin receptor; assay: ratio IC50 rat calcitonin receptor / IC50 rat amylin receptor (Assays VIII and VI)
# [2] = target: T2, human calcitonin receptor; assay: ratio IC50 human calcitonin receptor / IC50 human amylin receptor (Assays VII and V)
# In short: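 Competition binding by SPA uses membrane preparations (35 ng/μL final) in pH 7.4 Hepes buffer with 1 mM CaCl2 and 5 mM MgCl₂. Incubation lasts 120 min at 25° C, and IC₅₀ comes from one-site fitting.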
# rat calcitonin receptor [3] = target: T1, rat calcitonin receptor; assay: SPA competition with 125I-calcitonin, membranes of BHK cells with rat calcitonin receptor (Assay VIII)
# [4] = target: T3, rat amylin receptor (rat calcitonin …); assay: SPA competition with 125I-rat amylin, membranes of BHK cells with rat calcitonin receptor + rat RAMP3 (Assay VI)
Binder,Ratio rCT/rAmylin binding (rat calcitonin receptor [1]),Ratio hCT/hAmylin binding [2],IC50 (rat calcitonin receptor [3]) [nM],IC50 [4] [nM]
"K([AEEA-γGlu-C20 diacid])CNTATCATQRLANFLRHSSPNFGAIPSSTNVGSETY-NH2 (disulfide 2-7; N-terminus assumed; SMILES CC[C@H](C)[C@H](NC(=O)[C@H](C)NC(=O)CNC(=O)[C@H](Cc1ccccc1)NC(=O)[C@H](CC(N)=O)NC(=O)[C@@H]1CCCN1C(=O)[C@H](CO)NC(=O)[C@H](CO)NC(=O)[C@H](Cc1c[nH]cn1)NC(=O)[C@H](CCCNC(=N)N)NC(=O)[C@H](CC(C)C)NC(=O)[C@H](Cc1ccccc1)NC(=O)[C@H](CC(N)=O)NC(=O)[C@H](C)NC(=O)[C@H](CC(C)C)NC(=O)[C@H](CCCNC(=N)N)NC(=O)[C@H](CCC(N)=O)NC(=O)[C@@H](NC(=O)[C@H](C)NC(=O)[C@@H]1CSSC[C@H](NC(=O)[C@@H](N)CCCCNC(=O)COCCOCCNC(=O)CC[C@H](NC(=O)CCCCCCCCCCCCCCCCCCC(=O)O)C(=O)O)C(=O)N[C@@H](CC(N)=O)C(=O)N[C@@H]([C@@H](C)O)C(=O)N[C@@H](C)C(=O)N[C@@H]([C@@H](C)O)C(=O)N1)[C@@H](C)O)C(=O)N1CCC[C@H]1C(=O)N[C@@H](CO)C(=O)N[C@@H](CO)C(=O)N[C@H](C(=O)N[C@@H](CC(N)=O)C(=O)N[C@H](C(=O)NCC(=O)N[C@@H](CO)C(=O)N[C@@H](CCC(=O)O)C(=O)N[C@H](C(=O)N[C@@H](Cc1ccc(O)cc1)C(N)=O)[C@@H](C)O)C(C)C)[C@@H](C)O, Derivative of human amylin; also called compound 26)",309,47.5,152,0.491
"K([γGlu-γGlu-C20 diacid])CNTATCATQRLADFLRHSSPNFGAPLSSTNVGSDTY-NH2 (disulfide 2-7; N-terminus assumed; SMILES CC(C)C[C@H](NC(=O)[C@H](CCCNC(=N)N)NC(=O)[C@H](CCC(N)=O)NC(=O)[C@@H](NC(=O)[C@H](C)NC(=O)[C@@H]1CSSC[C@H](NC(=O)[C@@H](N)CCCCNC(=O)CC[C@H](NC(=O)CC[C@H](NC(=O)CCCCCCCCCCCCCCCCCCC(=O)O)C(=O)O)C(=O)O)C(=O)N[C@@H](CC(N)=O)C(=O)N[C@@H]([C@@H](C)O)C(=O)N[C@@H](C)C(=O)N[C@@H]([C@@H](C)O)C(=O)N1)[C@@H](C)O)C(=O)N[C@@H](C)C(=O)N[C@@H](CC(=O)O)C(=O)N[C@@H](Cc1ccccc1)C(=O)N[C@@H](CC(C)C)C(=O)N[C@@H](CCCNC(=N)N)C(=O)N[C@@H](Cc1c[nH]cn1)C(=O)N[C@@H](CO)C(=O)N[C@@H](CO)C(=O)N1CCC[C@H]1C(=O)N[C@@H](CC(N)=O)C(=O)N[C@@H](Cc1ccccc1)C(=O)NCC(=O)N[C@@H](C)C(=O)N1CCC[C@H]1C(=O)N[C@@H](CC(C)C)C(=O)N[C@@H](CO)C(=O)N[C@@H](CO)C(=O)N[C@H](C(=O)N[C@@H](CC(N)=O)C(=O)N[C@H](C(=O)NCC(=O)N[C@@H](CO)C(=O)N[C@@H](CC(=O)O)C(=O)N[C@H](C(=O)N[C@@H](Cc1ccc(O)cc1)C(N)=O)[C@@H](C)O)C(C)C)[C@@H](C)O, Derivative of human amylin; also called compound 1)",104,27.6,135,1.3

# Reference: patent US20140087995A1 (published 2014)
